What is called Kd is the concentration at which binding is half-saturated.

For test [1], the target named is T1, SARS-CoV-2 RBD protein (321–591) (SARS-CoV-2, Wuhan-Hu-1 (MN908947), UniProt P0DTC2). In words: cell-based or functional assay.
Test [2] deals with T1, SARS-CoV-2 RBD protein (321–591). In words: SPR. The following applies: both partners purified.

B1: S309H-XG81L (antibody, V domains shown)
VH: not shown
VL: DIQMTQSPSSLSASVGDRVTITCRASQSISSSLNWYQQKPGKAPKLLIYAASNLQSGVPSRFSGSGSGTDFTLTISSLQPEDFATYYCQQSFSTLFTFGPGTKVDLK
notes: also called rAb S309H-XG81L
On to B1, for which, in test [1], the “IC50 of neutralisation of authentic SARS-CoV-2 on Vero E6 cells (CPE assay)” value came out at 1.25 µg/mL. In test [2], this molecule came in with a dissociation constant (Kd) of 21.1 nM.

(Values after paper PMC8442604 (Frontiers in Immunology, 2021).)
